{"source": "patent CN114437226A", "about": "(HANGZHOU CYANINE INGENKANG BIOTECHNOLOGY LTD COMPANY, dated 2022)", "biological_target": "T1, 人白介素22(IL22)(Sino Biological) (human, UniProt Q9GZX6 34-179)", "T1 sequence (looked up)": "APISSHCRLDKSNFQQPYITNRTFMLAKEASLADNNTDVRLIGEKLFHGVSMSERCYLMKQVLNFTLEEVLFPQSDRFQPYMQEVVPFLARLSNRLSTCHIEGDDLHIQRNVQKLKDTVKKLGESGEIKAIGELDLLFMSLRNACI", "assay": "ELISA, IL22-coated plate (Fig 11)"}
{"binder": "FezHλ-ClaH(K218C)κ(F118C) (bispecific antibody, human IgG1, lambda, also called K218C/F118C) heavy 1: QVQLVQSGAEVKKPGASVKVSCKASGYTFTNYYMHWVRQAPGQGLEWVGWINPYTGSAFYAQKFRGRVTMTRDTSISTAYMELSRLRSDDTAVYYCAREPEKFDSDDSDVWGRGTLVTVSSASTKGPSVFPLAPSSKSTSGGTAALGCLVKDYFPEPVTVSWNSGALTSGVHTFPAVLQSSGLYSLSSVVTVPSSSLGTQTYICNVNHKPSNTKVDKKVEPKSCDKTHTCPPCPAPELLGGPSVFLFPPKPKDTLMISRTPEVTCVVVDVSHEDPEVKFNWYVDGVEVHNAKTKPREEQYNSTYRVVSVLTVLHQDWLNGKEYKCKVSNKALPAPIEKTISKAKGQPREPQVYTLPPSREEMTKNQVSLSCAVKGFYPSDIAVEWESNGQPENNYKTTPPVLDSDGSFFLVSKLTVDKSRWQQGNVFSCSVMHEALHNRFTQKSLSLSPGHHHHHH light 1: QAVLTQPPSVSGAPGQRVTISCTGSSSNIGAGYGVHWYQQLPGTAPKLLIYGDSNRPSGVPDRFSGSKSGTSASLAITGLQAEDEADYYCQSYDNSLSGYVFGGGTQLTVLGQPKAAPSVTLFPPSSEELQANKATLVCLISDFYPGAVTVAWKADSSPVKAGVETTTPSKQSNNKYAASSYLSLTPEQWKSHRSYSCQVTHEGSTVEKTVAPTECS heavy 2: not shown light 2: AIQMTQSPSSLSASVGDRVTITCQASQSINNELSWYQQKPGKAPKLLIYRASTLASGVPSRFSGSGSGTDFTLTISSLQPDDFATYYCQQGYSLRNIDNAFGGGTKVEIKRTVAAPSVFICPPSDEQLKSGTASVVCLLNNFYPREAKVQWKVDNALQSGNSQESVTEQDSKDSTYSLSSTLTLSKADYEKHKVYACEVTHQGLSSPVTKSFNRGEV", "values": [{"measurement": "binding result", "value": "binds"}]}
{"binder": "FezHλ-ClaH(S132C)κ(F116C) (bispecific antibody, human IgG1, lambda, also called S132C/F116C) heavy 1: QVQLVQSGAEVKKPGASVKVSCKASGYTFTNYYMHWVRQAPGQGLEWVGWINPYTGSAFYAQKFRGRVTMTRDTSISTAYMELSRLRSDDTAVYYCAREPEKFDSDDSDVWGRGTLVTVSSASTKGPSVFPLAPSSKSTSGGTAALGCLVKDYFPEPVTVSWNSGALTSGVHTFPAVLQSSGLYSLSSVVTVPSSSLGTQTYICNVNHKPSNTKVDKKVEPKSCDKTHTCPPCPAPELLGGPSVFLFPPKPKDTLMISRTPEVTCVVVDVSHEDPEVKFNWYVDGVEVHNAKTKPREEQYNSTYRVVSVLTVLHQDWLNGKEYKCKVSNKALPAPIEKTISKAKGQPREPQVYTLPPSREEMTKNQVSLSCAVKGFYPSDIAVEWESNGQPENNYKTTPPVLDSDGSFFLVSKLTVDKSRWQQGNVFSCSVMHEALHNRFTQKSLSLSPGHHHHHH light 1: QAVLTQPPSVSGAPGQRVTISCTGSSSNIGAGYGVHWYQQLPGTAPKLLIYGDSNRPSGVPDRFSGSKSGTSASLAITGLQAEDEADYYCQSYDNSLSGYVFGGGTQLTVLGQPKAAPSVTLFPPSSEELQANKATLVCLISDFYPGAVTVAWKADSSPVKAGVETTTPSKQSNNKYAASSYLSLTPEQWKSHRSYSCQVTHEGSTVEKTVAPTECS heavy 2: not shown light 2: AIQMTQSPSSLSASVGDRVTITCQASQSINNELSWYQQKPGKAPKLLIYRASTLASGVPSRFSGSGSGTDFTLTISSLQPDDFATYYCQQGYSLRNIDNAFGGGTKVEIKRTVAAPSVCIFPPSDEQLKSGTASVVCLLNNFYPREAKVQWKVDNALQSGNSQESVTEQDSKDSTYSLSSTLTLSKADYEKHKVYACEVTHQGLSSPVTKSFNRGEV", "values": [{"measurement": "binding result", "value": "binds"}]}
